2 molecules from patent US20220213176A1 can be followed below.

As usually defined, the IC50 is the concentration needed to halve the response being measured. Low values mean greater potency, high ones weaker potency. As a reminder, the koff is the rate constant with which the complex falls apart. High values mean a short-lived complex, low ones a long-lived complex. One may read the kon as the rate constant with which the complex forms. Read a high kon as fast association. The term Kd denotes the free concentration of one partner at which half of the binding sites on the other are occupied at equilibrium, for simple one-to-one binding.

Read-outs that look alike come from different tables or passages of the source.

What all share (settings): remark: other sources report otherwise
For test [1], the target named is T1, SARS-CoV-2 spike receptor binding domain, wild-type (S-RBD) (SARS-CoV-2), P0DTC2.
For test [2], the target named is full-length SARS-CoV-2 spike (SARS-CoV-2), P0DTC2.
For test [3], the target named is N501Y S-RBD (SARS-CoV-2), P0DTC2.
Test [4] concerns the target SARS-CoV-2 spike D215H (SARS-CoV-2), P0DTC2.
Test [5] has as its target SARS-CoV-2 spike D614G (SARS-CoV-2), P0DTC2.
The target in test [6] is SARS-CoV-2 spike E484K+N501Y+D614G (SARS-CoV-2), P0DTC2.
For test [7], the target named is T2, SARS-CoV-2 spike K417N+E484K+N501Y+D614G (SARS-CoV-2), P0DTC2.
Test [8] has as its target SARS-CoV-2 spike K417N+N501Y+D614G (SARS-CoV-2), P0DTC2.
The target of test [9] is SARS-CoV-2 spike N439K+D614G (SARS-CoV-2), P0DTC2.
The target in test [10] is SARS-CoV-2 spike N501Y+D614G (SARS-CoV-2), P0DTC2.
In test [11] the target is SARS-CoV-2 spike S247R (SARS-CoV-2), P0DTC2.
Test [12] has as its target N501Y S-RBD (SARS-CoV-2), P0DTC2. Nature of the test: BLI (Octet), biotinylated N501Y S-RBD on SA sensor, 1:1 fit. For orientation: BLI is a label-free optical method that tracks binding on a fibre tip over time.
Test [13] concerns the target B.1.351 S-RBD (SARS-CoV-2), P0DTC2. Put plainly: BLI (Octet RED96), biotin B.1.351 S-RBD on SA sensor, 1:1 fit.
Test [14] concerns the target T1, SARS-CoV-2 spike receptor binding …. Put plainly: BLI (Octet), biotinylated S-RBD on SA sensor, IgG4 in solution, 1:1 fit.
The target is the same in test [15]. Put plainly: BLI (Octet RED96), biotin S-RBD on SA sensor, 1:1 fit; dimer S-E6, WT S-RBD.
Test [16] deals with N501Y S-RBD (SARS-CoV-2), P0DTC2. Nature of the test: BLI (Octet), biotinylated N501Y S-RBD on SA biosensor, 1:1 binding model.
Test [17] concerns the target T1, SARS-CoV-2 spike receptor binding …. Put plainly: BLI (Octet RED96), biotinylated WT S-RBD on SA biosensor, 1:1 binding model.
Test [18] shares this target. Put plainly: BLI (Octet), biotinylated S-RBD on SA biosensor, 1:1 binding model [cont'd) h].
Test [19] deals with B.1.351 S-RBD (SARS-CoV-2), P0DTC2. Nature of the test: BLI (Octet RED96), biotinylated B.1.351 S-RBD on SA biosensor, 1:1 binding model.
In test [20] the target is N501Y S-RBD (SARS-CoV-2), P0DTC2. Put plainly: BLI (Octet), N501Y S-RBD amine coupled on AR2G sensor, 1:1 fit.
For test [21], the target named is SARS-CoV-2 spike E484K+N501Y+D614G (SARS-CoV-2), P0DTC2. Nature of the test: FACS MFI on transfected HEK293T cells, against D614G spike (mut 3).
Test [22] concerns the target T2, SARS-CoV-2 spike …. Described as above.
The target of test [23] is T1, SARS-CoV-2 spike receptor binding …. Put plainly: BLI (Octet), S-RBD amine coupled on AR2G sensor, IgG4 in solution, 1:1 fit.
For test [24], the target named is N501Y S-RBD (SARS-CoV-2), P0DTC2. Put plainly: BLI (Octet), N501Y S-RBD amine-coupled on AR2G sensor, 1:1 binding model.
Test [25] deals with T1, SARS-CoV-2 spike receptor binding …. Put plainly: BLI (Octet), S-RBD amine-coupled on AR2G sensor, 1:1 binding model [cont'd) h].

B1: S-E6 (antibody, V domains shown)
VH: QVTLRESGPGLVKPSETLSLTCAVSGGSLSSVNYYWSWIRQHPGKGLEWIGYIYYSGSTNYNPSLKSRVTMSLDTSKNQFSLKLSSVTAADTAVYYCATPGAIMGALHIWGQGTLVTVSS
VL: QAVLTQPSSASSTPGQRVIISCSGSSSNIGSNTVSWYQQVPGAAPKLLIYFDYRRPSGVPDRFSGTRSGTSASLGISGLQSEDEADYYCAAWDDSLSAWVFGRGTKLTVLG
Consider B1, for which, in test [1], the IC50 was 12.2 nM. Besides, the MFI in test [2] was found to be 18200; in test [4], 135000; in [5], 157000; in test [6], 139000; in test [7], 141000; in test [8], 312000. The MFI in [9] is 133000; in test [10], 153000; in test [11], 109000. The koff in [3] is 0.00025 s⁻¹; in test [16] it was 0.00025 s⁻¹; in [17], 3.37e-05 s⁻¹; in test [18], 0.00013 s⁻¹; in [19] it was 0.000915 s⁻¹. The kon came to 1.2e+06 M⁻¹ s⁻¹ in test [3]; 1.2e+06 M⁻¹ s⁻¹ in test [16]; 403000 M⁻¹ s⁻¹ in test [17]; 1.2e+06 M⁻¹ s⁻¹ in test [18]; 581000 M⁻¹ s⁻¹ in test [19]. In addition, the dissociation constant Kd in test [12] was 0.21 nM; in test [13], 1.58 nM; in [14] it was 0.11 nM; in test [15] it was 0.0836 nM; in test [19] it was 1.58 nM.

B2: S-D4 (antibody, V domains shown)
VH: QVQLQESGGGVVQPGRSLRLSCEVSGFTFSDYGMHWVRQAPGKGLEWVAVIWSEGSTEYYADSVKGRFTISRDNSKDTLYLQMNSLRAEDTAVYYCARPGYPTSTDRSPAAAGARQYYYYGMDVWGQGTTVTVSS
VL: NFMLTQPHSVSESPGKTVTISCTRSGGSGAANYVQWYQQRPGSSPTTLIYEDSRRPPGVPDRFSGSVDTSSNSASLTISGLQTEDEADYYCQSYDSSNHVVFGGGTKLTVLG
In turn, B2 showed an IC50 in test [1] of 7.1 nM. For the same molecule, the MFI in [2] was 43000; in test [4] it was 411000; in test [5] it was 414000; in test [6] it was 138000; in test [7] it was 147000; in [8] it was 155000. Moreover, the MFI is 360000 in test [9], 281000 in test [10] and 335000 in test [11]. In addition, the koff in test [3] amounted to 4.2e-05 s⁻¹; in test [24], 4.2e-05 s⁻¹; in test [25], 4.6e-05 s⁻¹. Further, the results for the kon in test [3], in test [24] and in test [25] were 440000 M⁻¹ s⁻¹, 440000 M⁻¹ s⁻¹ and 390000 M⁻¹ s⁻¹, respectively. The Kd amounted to 0.097 nM in test [20] and 0.12 nM in [23]. The MFI as percent of mut 3 in [21] is 33.2 % of mut 3; in test [22], 35.6 % of mut 3.
